Test system: Escherichia coli TOP10
Assay: shrunken log2 fold change of peptide-encoding DNA abundance (4.5 h post-induction vs induction); higher = less antimicrobial activity (less host growth inhibition)
Settings: time post-induction: 4.5 h; library: site-saturation at positions 5, 18, 19, 20
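Also: peptides expressed intracellularly from a pBAD plasmid library in pooled LB shake-flask culture, induced with 0.3% L-arabinose, DNA abundance read by NGS, three biological replicates, DESeq2 with apeglm shrinkage.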

RRIRHRPPRLPRPRPRPTTDPRP
shrunken log2 fold change: -0.136

RRIRHRPPRLPRPRPRPTVSPRP
shrunken log2 fold change: -0.0706

RRIRHRPPRLPRPRPRPTYHPRP
shrunken log2 fold change: -0.514

RRIRHRPPRLPRPRPRPTYVPRP
shrunken log2 fold change: -0.143

RRIRHRPPRLPRPRPRPVADPRP
shrunken log2 fold change: -0.209

RRIRHRPPRLPRPRPRPVARPRP
shrunken log2 fold change: 0.227

RRIRHRPPRLPRPRPRPVCLPRP
shrunken log2 fold change: -0.0609

RRIRHRPPRLPRPRPRPVDIPRP
shrunken log2 fold change: -0.167

RRIRHRPPRLPRPRPRPVEDPRP
shrunken log2 fold change: -0.0354

RRIRHRPPRLPRPRPRPVEIPRP
shrunken log2 fold change: -0.0173

RRIRHRPPRLPRPRPRPVEKPRP
shrunken log2 fold change: -0.0342

RRIRHRPPRLPRPRPRPVEWPRP
shrunken log2 fold change: 0.123

RRIRHRPPRLPRPRPRPVHNPRP
shrunken log2 fold change: 0.154

RRIRHRPPRLPRPRPRPVIMPRP
shrunken log2 fold change: -1

RRIRHRPPRLPRPRPRPVIQPRP
shrunken log2 fold change: -0.00152

RRIRHRPPRLPRPRPRPVMCPRP
shrunken log2 fold change: -0.175

RRIRHRPPRLPRPRPRPVNMPRP
shrunken log2 fold change: -0.00401

RRIRHRPPRLPRPRPRPVNVPRP
shrunken log2 fold change: 0.0798

RRIRHRPPRLPRPRPRPVPGPRP
shrunken log2 fold change: -0.163

RRIRHRPPRLPRPRPRPVPVPRP
shrunken log2 fold change: 0.0601

RRIRHRPPRLPRPRPRPVRSPRP
shrunken log2 fold change: 0.172

RRIRHRPPRLPRPRPRPVSAPRP
shrunken log2 fold change: 0.0852

RRIRHRPPRLPRPRPRPVSGPRP
shrunken log2 fold change: -0.188

RRIRHRPPRLPRPRPRPVSKPRP
shrunken log2 fold change: -0.0396

RRIRHRPPRLPRPRPRPVVIPRP
shrunken log2 fold change: -0.759

RRIRHRPPRLPRPRPRPVVVPRP
shrunken log2 fold change: -0.149

RRIRHRPPRLPRPRPRPVWCPRP
shrunken log2 fold change: -0.0641

RRIRHRPPRLPRPRPRPVWEPRP
shrunken log2 fold change: 0.107

RRIRHRPPRLPRPRPRPVWIPRP
shrunken log2 fold change: -0.0159

RRIRHRPPRLPRPRPRPVYRPRP
shrunken log2 fold change: -0.305

RRIRHRPPRLPRPRPRPWAIPRP
shrunken log2 fold change: 0.112

RRIRHRPPRLPRPRPRPWCLPRP
shrunken log2 fold change: -1.67

RRIRHRPPRLPRPRPRPWCYPRP
shrunken log2 fold change: -0.297

RRIRHRPPRLPRPRPRPWFVPRP
shrunken log2 fold change: -0.14

RRIRHRPPRLPRPRPRPWFYPRP
shrunken log2 fold change: -0.244

RRIRHRPPRLPRPRPRPWHRPRP
shrunken log2 fold change: -0.119

RRIRHRPPRLPRPRPRPWIMPRP
shrunken log2 fold change: -0.597

RRIRHRPPRLPRPRPRPWRPPRP
shrunken log2 fold change: 0.29

RRIRHRPPRLPRPRPRPWTMPRP
shrunken log2 fold change: -0.344

RRIRHRPPRLPRPRPRPWVLPRP
shrunken log2 fold change: -0.776

RRIRHRPPRLPRPRPRPWVWPRP
shrunken log2 fold change: 0.296

RRIRHRPPRLPRPRPRPYCCPRP
shrunken log2 fold change: -0.305

RRIRHRPPRLPRPRPRPYCHPRP
shrunken log2 fold change: -0.0851

RRIRHRPPRLPRPRPRPYCRPRP
shrunken log2 fold change: -0.0455

RRIRHRPPRLPRPRPRPYDCPRP
shrunken log2 fold change: -0.0596

RRIRHRPPRLPRPRPRPYEPPRP
shrunken log2 fold change: -0.451

RRIRHRPPRLPRPRPRPYFNPRP
shrunken log2 fold change: -0.882

RRIRHRPPRLPRPRPRPYFRPRP
shrunken log2 fold change: -0.296

RRIRHRPPRLPRPRPRPYHHPRP
shrunken log2 fold change: -0.607

RRIRHRPPRLPRPRPRPYIMPRP
shrunken log2 fold change: -0.431

RRIRHRPPRLPRPRPRPYKLPRP
shrunken log2 fold change: -0.611

RRIRHRPPRLPRPRPRPYLPPRP
shrunken log2 fold change: -0.618

RRIRHRPPRLPRPRPRPYNYPRP
shrunken log2 fold change: -0.00747

RRIRHRPPRLPRPRPRPYPPPRP
shrunken log2 fold change: -0.694

RRIRHRPPRLPRPRPRPYPYPRP
shrunken log2 fold change: -0.43

RRIRHRPPRLPRPRPRPYQGPRP
shrunken log2 fold change: -0.00674

RRIRHRPPRLPRPRPRPYQMPRP
shrunken log2 fold change: -0.113

RRIRHRPPRLPRPRPRPYSCPRP
shrunken log2 fold change: -0.0837

RRIRHRPPRLPRPRPRPYSDPRP
shrunken log2 fold change: -1.17

RRIRHRPPRLPRPRPRPYSEPRP
shrunken log2 fold change: -0.29

— the supplement of paper PMC9112550, “Optimization of the antimicrobial peptide Bac7 by deep mutational scanning” (BMC Biology, 2022)
